Target: microtubules (polymers of alpha- and beta-tubulin) of Drosophila head lysate (D. melanogaster (endogenous in adult fly heads)) (UniProt P06603)
Test: co-sedimentation; in vivo microtubule-binding assay: 50 wild-type fly heads homogenised in Buffer-C+ (50 mM HEPES pH 7.1, 1.0 mM MgCl2, 1.0 mM EGTA, protease and phosphatase inhibitors) with 20 uM Taxol; 100,000 x g for 30 min through a 50% sucrose cushion; pellet blotted with anti-Pfdn5 and anti-ace-tubulin

Sequence of UniProt P06603 (P06603 whole entry, chain 1 of 2): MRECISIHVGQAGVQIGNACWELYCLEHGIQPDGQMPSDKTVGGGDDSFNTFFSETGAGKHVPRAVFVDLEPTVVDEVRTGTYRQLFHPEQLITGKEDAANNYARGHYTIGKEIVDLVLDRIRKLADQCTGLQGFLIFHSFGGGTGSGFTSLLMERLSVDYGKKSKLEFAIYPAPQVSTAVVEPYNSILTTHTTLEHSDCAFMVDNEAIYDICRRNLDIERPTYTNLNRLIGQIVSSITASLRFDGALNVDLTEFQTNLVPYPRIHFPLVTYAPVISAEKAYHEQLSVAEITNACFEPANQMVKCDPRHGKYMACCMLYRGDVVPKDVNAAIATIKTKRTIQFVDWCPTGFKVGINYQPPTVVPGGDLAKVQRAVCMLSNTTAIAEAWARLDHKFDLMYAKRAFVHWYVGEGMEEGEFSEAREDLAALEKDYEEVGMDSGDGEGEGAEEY
Sequence of UniProt P06603 (Q24560 whole entry, chain 2 of 2, further chain): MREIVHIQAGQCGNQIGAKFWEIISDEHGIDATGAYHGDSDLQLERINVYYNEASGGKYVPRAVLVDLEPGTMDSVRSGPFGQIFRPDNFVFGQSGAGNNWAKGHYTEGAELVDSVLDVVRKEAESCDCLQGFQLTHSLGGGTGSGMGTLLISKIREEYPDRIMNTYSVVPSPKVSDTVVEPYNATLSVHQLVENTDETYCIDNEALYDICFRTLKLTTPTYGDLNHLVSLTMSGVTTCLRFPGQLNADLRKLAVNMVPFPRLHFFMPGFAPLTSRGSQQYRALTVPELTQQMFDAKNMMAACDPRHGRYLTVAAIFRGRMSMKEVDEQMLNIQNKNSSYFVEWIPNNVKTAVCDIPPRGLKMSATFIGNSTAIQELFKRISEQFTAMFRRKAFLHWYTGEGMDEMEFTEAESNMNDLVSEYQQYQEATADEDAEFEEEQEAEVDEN

B1: Prefoldin 5 (natural protein)
chain: MAATPSAPAKSEMIDLTKLSPEQLIQIKQEFEQEITNVQDSLSTLHGCQAKYAGSKEALGTFQPNWENRQILVPLTSSMYVPGRVKDLNRFVIDIGTGYYIEKDLEGSKDYFKRRVEYVQEQIEKIEKIHLQKTRFYNSVMSVLEMKQAAAAKLQSQQQSQPAVTQSS
B1 was tested, and the percentage of Pfdn5 in the pellet fraction was 36.7%.

Reference: publication PMC12803513
